Results reported in PMC5278347, “Identification and Characterization of a Plastidic Adenine Nucleotide Uniporter (OsBT1-3) Required for Chloroplast Development in the Early Leaf Stage of Rice” (Scientific Reports, 2017).

T1: OsBT1-3 (Oryza sativa, UniProt A0A0P0WYD6)
T1 construct: gene Os06g0602700; E. coli Rosetta(DE3)pLysS, intact cells; antibody peptide VPGTEAESVNEEEVVDGK
T1 sequence (A0A0P0WYD6 1-423): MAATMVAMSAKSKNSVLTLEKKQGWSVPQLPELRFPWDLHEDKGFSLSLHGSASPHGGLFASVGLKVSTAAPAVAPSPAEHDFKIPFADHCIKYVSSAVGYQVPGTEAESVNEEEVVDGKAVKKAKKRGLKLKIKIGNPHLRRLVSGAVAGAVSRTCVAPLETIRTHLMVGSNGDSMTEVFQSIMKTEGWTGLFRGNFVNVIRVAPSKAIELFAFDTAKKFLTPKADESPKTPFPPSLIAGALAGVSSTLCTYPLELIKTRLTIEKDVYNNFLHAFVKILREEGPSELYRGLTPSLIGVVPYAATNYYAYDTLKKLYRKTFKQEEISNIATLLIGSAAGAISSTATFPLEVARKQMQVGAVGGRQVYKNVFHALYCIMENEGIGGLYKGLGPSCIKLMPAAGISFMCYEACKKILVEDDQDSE


What was measured:
[1] = target: T1, OsBT1-3; assay: inhibition of [α^32P]-ATP uptake into E. coli cells; assay type: cell-based; conditions: 2000 µM; 2 mM PLP; lysozyme-treated cells; ATP printed as 50 mM (probably μM)
[2] = substrate: Nc1ncnc2c1ncn2[C@@H]1O[C@H](COP(=O)(O)OP(=O)(O)OP(=O)(O)O)[C@@H](O)[C@H]1O; assay: cells, lysate or membranes; assay type: cell-based, Oryza sativa; conditions: labelled compound ([α^32P]-ATP); 0 to 900 μM; IPTG-induced cells, non-induced background subtracted
[3] = substrate: Nc1ncnc2c1ncn2[C@@H]1O[C@H](COP(=O)(O)O)[C@@H](O)[C@H]1O; assay: cells, lysate or membranes; assay type: cell-based, Oryza sativa; conditions: labelled compound ([^14C]-AMP); 0 to 900 μM; IPTG-induced cells, non-induced background subtracted
[4] = substrate: Nc1ncnc2c1ncn2[C@@H]1O[C@H](COP(=O)(O)OP(=O)(O)O)[C@@H](O)[C@H]1O; assay: cells, lysate or membranes; assay type: cell-based, Oryza sativa; conditions: labelled compound ([α^32P]-ADP); 0 to 900 μM; IPTG-induced cells, non-induced background subtracted

Row | Transport Rate (%) [1] | Molecule | Km [2] | Km [3] | Km [4]
1 | 27.4 ± 1.9% | Cc1ncc(COP(=O)(O)O)c(C=O)c1O [PLP] |  |  | 
2 |  | OsBT1-3 (Oryza sativa Japonica Group) (protein, E. coli Rosetta(DE3)pLysS, intact cells; antibody peptide VPGTEAESVNEEEVVDGK) MAATMVAMSAKSKNSVLTLEKKQGWSVPQLPELRFPWDLHEDKGFSLSLHGSASPHGGLFASVGLKVSTAAPAVAPSPAEHDFKIPFADHCIKYVSSAVGYQVPGTEAESVNEEEVVDGKAVKKAKKRGLKLKIKIGNPHLRRLVSGAVAGAVSRTCVAPLETIRTHLMVGSNGDSMTEVFQSIMKTEGWTGLFRGNFVNVIRVAPSKAIELFAFDTAKKFLTPKADESPKTPFPPSLIAGALAGVSSTLCTYPLELIKTRLTIEKDVYNNFLHAFVKILREEGPSELYRGLTPSLIGVVPYAATNYYAYDTLKKLYRKTFKQEEISNIATLLIGSAAGAISSTATFPLEVARKQMQVGAVGGRQVYKNVFHALYCIMENEGIGGLYKGLGPSCIKLMPAAGISFMCYEACKKILVEDDQDSE | 83.5 ± 2.74 µM | 106.1 ± 3.45 µM | 101.7 ± 7.62 µM
